# According to IntAct's records for PubMed 17517630:
# B1: Rho GTPase-activating protein 7 (Homo sapiens), Q96QB1-1 (parent)
# chain: MCRKKPDTMILTQIEAKEACDWLRATGFPQYAQLYEDFLFPIDISLVKREHDFLDRDAIEALCRRLNTLNKCAVMKLEISPHRKRSDDSDEDEPCAISGKWTFQRDSKRWSRLEEFDVFSPKQDLVPGSPDDSHPKDGPSPGGTLMDLSERQEVSSVRSLSSTGSLPSHAPPSEDAATPRTNSVISVCSSSNLAGNDDSFGSLPSPKELSSFSFSMKGHEKTAKSKTRSLLKRMESLKLKSSHHSKHKAPSKLGLIISGPILQEGMDEEKLKQLNCVEISALNGNRINVPMVRKRSVSNSTQTSSSSSQSETSSAVSTPSPVTRTRSLSACNKRVGMYLEGFDPFNQSTFNNVVEQNFKNRESYPEDTVFYIPEDHKPGTFPKALTNGSFSPSGNNGSVNWRTGSFHGPGHISLRRENSSDSPKELKRRNSSSSMSSRLSIYDNVPGSILYSSSGDLADLENEDIFPELDDILYHVKGMQRIVNQWSEKFSDEGDSDSALDSVSPCPSSPKQIHLDVDNDRTTPSDLDSTGNSLNEPEEPSEIPERRDSGVGASLTRSNRHRLRWHSFQSSHRPSLNSVSLQINCQSVAQMNLLQKYSLLKLTALLEKYTPSNKHGFSWAVPKFMKRIKVPDYKDRSVFGVPLTVNVQRTGQPLPQSIQQAMRYLRNHCLDQVGLFRKSGVKSRIQALRQMNEGAIDCVNYEGQSAYDVADMLKQYFRDLPEPLMTNKLSETFLQIYQYVPKDQRLQAIKAAIMLLPDENREVLQTLLYFLSDVTAAVKENQMTPTNLAVCLAPSLFHLNTLKRENSSPRVMQRKQSLGKPDQKDLNENLAATQGLAHMIAECKKLFQVPEEMSRCRNSYTEQELKPLTLEALGHLGNDDSADYQHFLQDCVDGLFKEVKEKFKGWVSYSTSEQAELSYKKVSEGPPLRLWRSVIEVPAVPEEILKRLLKEQHLWDVDLLDSKVIEILDSQTEIYQYVQNSMAPHPARDYVVLRTWRTNLPKGACALLLTSVDHDRAPVVGVRVNVLLSRYLIEPCGPGKSKLTYMCRVDLRGHMPEWYTKSFGHLCAAEVVKIRDSFSNQNTETKDTKSR
# Variants of: B1
# Settings: with tens1_chick TNS1, Q04205
# Chain of tens1_chick TNS1, Q04205 (Q04205 whole entry): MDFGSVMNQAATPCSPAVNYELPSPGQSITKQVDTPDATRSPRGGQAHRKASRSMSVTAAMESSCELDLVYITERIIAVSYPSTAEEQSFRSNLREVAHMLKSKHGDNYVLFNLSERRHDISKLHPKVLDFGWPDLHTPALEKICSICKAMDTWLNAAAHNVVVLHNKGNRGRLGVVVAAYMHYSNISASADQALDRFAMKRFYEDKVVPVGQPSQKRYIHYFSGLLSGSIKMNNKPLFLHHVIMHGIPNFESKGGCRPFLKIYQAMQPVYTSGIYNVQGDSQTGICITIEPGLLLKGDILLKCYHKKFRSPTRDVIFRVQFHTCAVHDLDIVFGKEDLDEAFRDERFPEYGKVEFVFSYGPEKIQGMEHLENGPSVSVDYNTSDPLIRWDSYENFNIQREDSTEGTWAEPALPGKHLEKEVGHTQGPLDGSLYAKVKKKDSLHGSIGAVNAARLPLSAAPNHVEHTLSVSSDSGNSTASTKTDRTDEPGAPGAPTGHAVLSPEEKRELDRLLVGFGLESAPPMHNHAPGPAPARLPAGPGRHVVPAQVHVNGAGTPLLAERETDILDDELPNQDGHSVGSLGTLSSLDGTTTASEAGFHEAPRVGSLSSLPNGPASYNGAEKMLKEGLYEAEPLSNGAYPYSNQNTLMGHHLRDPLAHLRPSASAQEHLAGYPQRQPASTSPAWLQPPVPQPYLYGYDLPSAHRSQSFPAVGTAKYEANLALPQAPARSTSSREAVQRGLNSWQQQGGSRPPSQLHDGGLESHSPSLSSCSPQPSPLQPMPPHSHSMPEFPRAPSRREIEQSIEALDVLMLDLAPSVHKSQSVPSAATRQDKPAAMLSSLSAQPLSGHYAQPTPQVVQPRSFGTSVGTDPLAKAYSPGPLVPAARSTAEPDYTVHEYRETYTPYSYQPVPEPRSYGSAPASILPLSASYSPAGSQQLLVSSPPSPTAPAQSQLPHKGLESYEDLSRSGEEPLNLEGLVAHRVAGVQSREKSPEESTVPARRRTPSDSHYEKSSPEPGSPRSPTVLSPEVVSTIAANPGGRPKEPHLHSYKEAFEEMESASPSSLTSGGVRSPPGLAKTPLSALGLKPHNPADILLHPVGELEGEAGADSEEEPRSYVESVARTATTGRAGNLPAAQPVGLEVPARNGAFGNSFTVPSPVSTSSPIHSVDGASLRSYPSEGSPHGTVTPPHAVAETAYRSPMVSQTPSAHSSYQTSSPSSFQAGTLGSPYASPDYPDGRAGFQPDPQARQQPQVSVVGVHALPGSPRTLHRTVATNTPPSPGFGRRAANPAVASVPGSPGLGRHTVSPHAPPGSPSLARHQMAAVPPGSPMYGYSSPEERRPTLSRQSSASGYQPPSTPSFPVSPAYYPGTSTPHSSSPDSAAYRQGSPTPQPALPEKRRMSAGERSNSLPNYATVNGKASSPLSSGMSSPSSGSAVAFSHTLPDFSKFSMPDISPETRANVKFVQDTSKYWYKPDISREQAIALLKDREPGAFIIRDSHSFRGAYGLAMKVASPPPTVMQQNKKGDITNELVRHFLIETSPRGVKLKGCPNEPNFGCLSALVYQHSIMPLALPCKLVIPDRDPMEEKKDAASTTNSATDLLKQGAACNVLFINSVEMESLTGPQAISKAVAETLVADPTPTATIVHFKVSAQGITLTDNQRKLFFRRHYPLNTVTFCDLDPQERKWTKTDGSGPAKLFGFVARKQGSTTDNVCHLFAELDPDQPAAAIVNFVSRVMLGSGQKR
row,effect of a mutation on the interaction,Variant
1,disrupting interaction strength,Y442F
